Results: the nanobody polyreactivity screen of Harvey et al. (2022)

experiment: yeast display, Sf9 membrane polyspecificity reagent, FACS + sequencing; frameworks hold sequencing errors
Procedure, shortened: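 Nanobodies from a synthetic yeast display library (Saccharomyces cerevisiae BJ5465), induced 36–48 hours with galactose, were stained 1 hour at 4 °C with 10% biotinylated, detergent-solubilized Sf9 membrane reagent, enriched on streptavidin microbeads, then FACS-sorted. Anti-HA (expression) and streptavidin (reagent binding) fluorescence set low and high (top ~1%) gates. Polyreactivity labels come from the gate of origin. Genes were colony-PCR amplified, MiSeq 2 × 250 sequenced and filtered by CDR length.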

Sequence	polyreactivity (PSR sort gate)
QVQLVESGGGLVQAGGSLRLSCAASGSIFDWNAMGWYRQAPGKERELVATISWDGGSTYYADSVKGRFTISRDNSKNTVYLQMNSLKPEDTAVYYCATVFTGKPAYYARTKYDYWGQGTQVTVSS	low polyreactivity
QVQLVESGGGLVQAGGSLRLSCAASGSIFDWYAMGWYRKAPGTERELVAAINEGGGSTYYADSVKGRFTISRDNAKNTVYLQMNSLKPEDTAVYYCAAGDYYLQDNYWGQGTQVTVSS	low polyreactivity
QVQLVESGGGLVQAGGSLRLSCAASGSIFDYNAMGWYRQAPGKERELVAAITSGTSTNYADSVKGRFTISRDNAKNTVYLQMNSLKPEDTAVYYCAADPVWAYDYWGQGTQVTVSS	low polyreactivity
QVQLVESGGGLVQAGGSLRLSCAASGSIFDYNAMGWYRQAPGKERELVAAITYSGGTTYADSVKGRFTISRDNAKNTVYLQMNSLKPEDTAVYYCAATSYARFAYYYWGQGTQVTVSS	low polyreactivity
QVQLVESGGGLVQAGGSLRLSCAASGSIFDYYAMGWYRQAPGKERELVAAINISGGDTYYADSVKGRFTISRDNAKNTVYLQMNSLKPEDTAVYYCAADWVTWWFSRVGWDYGYWGQGTQVTVSS	low polyreactivity
QVQLVESGGGLVQAGGSLRLSCAASGSIFDYYAMGWYRQAPGKERELVAAISNGRTTNYADSVKGRFTISRDNAKNTVYLQMNSLKPEDTAVYYCNADSALYDKAVIYSEYDYWGQGTQVTVSS	low polyreactivity
QVQLVESGGGLVQAGGSLRLSCAASGSIFDYYAMGWYRQAPGKERELVAAISSSGDTTYYADSVKGRFTISRDTAKNTVYLQMNSLKPEDTAVYYCAARVRGYRHASNYYWGQGTQVTVSS	high polyreactivity
QVQLVESGGGLVQAGGSLRLSCAASGSIFDYYAMGWYRQAPGKERELVAAISTSTSSTYYADSVKGRFTISRDNAKNTVYFQMNSLKPEDTAVYYCAAEGESQPESPGYDYWGQGTQVTVSS	low polyreactivity
QVQLVESGGGLVQAGGSLRLSCAASGSIFEENAMGWYRQAPGKERELVAAINTRGGSTYYADSVKGRFTLSRDNAKNTVYLQMNSLKPEDTAVYYCALISRYYYWGQGTQVTVSS	high polyreactivity
QVQLVESGGGLVQAGGSLRLSCAASGSIFEENAMGWYRQAPGKERELVAAITIGGRTNYADSVYGRFTISRDNAKNTVYLQMNSLKPEDTAVYYCAADLSSNKYWRFWTRYYYWGQGTQVTVSS	low polyreactivity
QVQLVESGGGLVQAGGSLRLSCAASGSIFEEYAMGWYRQAPGKERELVARIDESGGSTYYADSVKGRFTISRDNAKNTVYLQMHSLKPEDSAVYYCAAVVTAQAYAYFTYGYDYWGQGTQVTVSS	low polyreactivity
QVQLVESGGGLVQAGGSLRLSCAASGSIFEEYAMGWYRQAPGKERELVARIDESGGSTYYADSVKGRFTISRDTAKNTVYLQMNSLKPEDTAVYYCAAERYSDSWGYYSVDEGSWEMDYWGQGTQVTVSS	low polyreactivity
QVQLVESGGGLVQAGGSLRLSCAASGSIFEGYAMGWYRQAPGKERELVADITSGGSTYYADSVKGRFTISRDNAKNTVYLQMNSLKPEDNAVYYCNRDYHWIELVYPDDRREYDYWGQGTQVTVSS	low polyreactivity
QVQLVESGGGLVQAGGSLRLSCAASGSIFEGYVMGWYRQAPGKERELVAGISRGSRTNYADSVKGRFTISRDNAKNTVYLQMNSLKPEDTAVYYCAAEYWGVYRGFVSSFDYWGQGTQVTVSS	high polyreactivity
QVQLVESGGGLVQAGGSLRLSCAASGSIFEIYAMGWYRQAPGKERELVAAISWSGGRTYYADSVKGRFTISRDNAKNTVYLQMNSLKPEDTAVYYCNAGQWRYPGLYYYWGQVTQVTVSS	high polyreactivity
QVQLVESGGGLVQAGGSLRLSCAASGSIFELNAMGWYRQAPGKERELVAAITSSGSSTYYADSVKGRFTISRDNAKNTVYLQMNSLKPEDTAVYYGFRPHDYWGQGTQVTVSS	low polyreactivity
QVQLVESGGGLVQAGGSLRLSCAASGSIFEPNAKGWYRQAPGKERELVAVINYSGGSTYYADSVKGRFTISRDNAKNTVYLQMNSLKPEDTAVYYCAASHYHYRYGTPQPEYNYWGQGTQVTVSS	low polyreactivity
